Assay results taken from paper PMC6555819, “Comprehensive study of nuclear receptor DNA binding provides a revised framework for understanding receptor specificity”.
Numbering of substitutions follows the chain as printed.

B1: NRC3_wobSeed141_DR5_G15C_o1 (dsDNA)
DNA 1: GCAGTCAAAGTTCACGACGAGGTAACGTAAAGCACGGCGATTGACAGCGTAGAATGAAGG
DNA 2: CCTTCATTCTACGCTGTCAATCGCCGTGCTTTACGTTACCTCGTCGTGAACTTTGACTGC
B2: NRC3_wobSeed21_DR0_G17T_o1 (dsDNA)
DNA 1: GCCGTCAAAGTTCAAGTTAACGTAACAGAAAGCAGCGCGATTGACAGCGTAGAATGAAGG
DNA 2: CCTTCATTCTACGCTGTCAATCGCGCTGCTTTCTGTTACGTTAACTTGAACTTTGACGGC
B3: NRC3_wobSeed21_DR0_A19T_o1 (dsDNA)
DNA 1: B2 DNA 1 with T17G, A19T
DNA 2: B2 DNA 2 with T42A, A44C
B4: NRC3_wobSeed61_DR2_C7T_o1 (dsDNA)
DNA 1: GCCGTCTAAGGTCAGCAGGTCAGTGAAAGCGACGTGGCGATTGACAGCGTAGAATGAAGG
DNA 2: CCTTCATTCTACGCTGTCAATCGCCACGTCGCTTTCACTGACCTGCTGACCTTAGACGGC
B5: NRC3_wobSeed61_DR2_G23C_o1 (dsDNA)
DNA 1: B4 DNA 1 with T7C, G23C
DNA 2: B4 DNA 2 with C38G, A54G
B6: NRC3_wobSeed61_DR2_G15A_o1 (dsDNA)
DNA 1: B4 DNA 1 with T7C, G15A
DNA 2: B4 DNA 2 with C46T, A54G
B7: NRC3_wobSeed117_DR4_A29T_o1 (dsDNA)
DNA 1: GCCGTCAAAGTTCAACTAAGGTAACGTATAGCACGCGCGATTGACAGCGTAGAATGAAGG
DNA 2: CCTTCATTCTACGCTGTCAATCGCGCGTGCTATACGTTACCTTAGTTGAACTTTGACGGC
B8: NRC3_wobSeed117_DR4_G21T_o1 (dsDNA)
DNA 1: B7 DNA 1 with G21T, T29A
DNA 2: B7 DNA 2 with A32T, C40A
B9: NRC3_wobSeed134_DR5_T8A_o1 (dsDNA)
DNA 1: GCGCTGCAAGGTCAACTGATGGTCAGCTAAAGCTCGGCGATTGACAGCGTAGAATGAAGG
DNA 2: CCTTCATTCTACGCTGTCAATCGCCGAGCTTTAGCTGACCATCAGTTGACCTTGCAGCGC
B10: NRC3_wobSeed133_DR5_T16C_o1 (dsDNA)
DNA 1: GCCGTCCAAGGTCAACGCTAGGTCAGTGAAAGCATTGCGATTGACAGCGTAGAATGAAGG
DNA 2: CCTTCATTCTACGCTGTCAATCGCAATGCTTTCACTGACCTAGCGTTGACCTTGGACGGC
B11: NRC3_wobSeed49_DR2_A6G_o1 (dsDNA)
DNA 1: GCCAAGCTAGGTCAAGAGGTCAAAGTCCGCTTCCCGGCGATTGACAGCGTAGAATGAAGG
DNA 2: CCTTCATTCTACGCTGTCAATCGCCGGGAAGCGGACTTTGACCTCTTGACCTAGCTTGGC
B12: NRC3_wobSeed69_DR2_T16G_o1 (dsDNA)
DNA 1: GCAGTCAAAGTTCACGAGGTAACGTAAGATTCAGCTGCGATTGACAGCGTAGAATGAAGG
DNA 2: CCTTCATTCTACGCTGTCAATCGCAGCTGAATCTTACGTTACCTCGTGAACTTTGACTGC
B13: NRC3_wobSeed109_DR4_C6T_o1 (dsDNA)
DNA 1: GCCGTTCAAGGTCATAGGAGGTCAGTGAAGACAGATGCGATTGACAGCGTAGAATGAAGG
DNA 2: CCTTCATTCTACGCTGTCAATCGCATCTGTCTTCACTGACCTCCTATGACCTTGAACGGC
B14: NRC3_wobSeed97_DR4_A26C_o1 (dsDNA)
DNA 1: GCCAAACTAGGTCACGAAAGGTCAACGTCGAATGACGCGATTGACAGCGTAGAATGAAGG
DNA 2: CCTTCATTCTACGCTGTCAATCGCGTCATTCGACGTTGACCTTTCGTGACCTAGTTTGGC
B15: NRC3_wobSeed13_DR0_C7T_o1 (dsDNA)
DNA 1: GCCGTCTAAGGTCAAGGTCAGTGAAAGAGACTCGAAGCGATTGACAGCGTAGAATGAAGG
DNA 2: CCTTCATTCTACGCTGTCAATCGCTTCGAGTCTCTTTCACTGACCTTGACCTTAGACGGC
B16: NRC3_wobSeed51_DR2_T5C_o1 (dsDNA)
DNA 1: GCCCCCGGAGGACAGAAGGTCAGAGCTGTCCGCTTTGCGATTGACAGCGTAGAATGAAGG
DNA 2: CCTTCATTCTACGCTGTCAATCGCAAAGCGGACAGCTCTGACCTTCTGTCCTCCGGGGGC
B17: NRC3_wobSeed73_DR3_A25C_o1 (dsDNA)
DNA 1: GCCAAACTAGGTCACAGAGGTCAACGTCCGTGCGTAGCGATTGACAGCGTAGAATGAAGG
DNA 2: CCTTCATTCTACGCTGTCAATCGCTACGCACGGACGTTGACCTCTGTGACCTAGTTTGGC
B18: NRC3_wobSeed85_DR3_C6G_o1 (dsDNA)
DNA 1: GCCGTGCAAGGTCAGAGAGGTCAGTGAATGCCGAGTGCGATTGACAGCGTAGAATGAAGG
DNA 2: CCTTCATTCTACGCTGTCAATCGCACTCGGCATTCACTGACCTCTCTGACCTTGCACGGC
B19: NRC3_random_hg19_241_o1 (dsDNA)
DNA 1: GCTGTAACGTGGGCTTCACTGTCGGGTCCAGCCCACGCGATTGACAGCGTAGAATGAAGG
DNA 2: CCTTCATTCTACGCTGTCAATCGCGTGGGCTGGACCCGACAGTGAAGCCCACGTTACAGC
B20: NRC3_wobSeed14_DR0_T23G_o1 (dsDNA)
DNA 1: GCCCTGCTAGGTCATGGTCAGCGAATCTACAGTATGGCGATTGACAGCGTAGAATGAAGG
DNA 2: CCTTCATTCTACGCTGTCAATCGCCATACTGTAGATTCGCTGACCATGACCTAGCAGGGC
B21: NRC3_wobSeed71_DR2_G12T_o1 (dsDNA)
DNA 1: GCCGAACGAGGTCATGAGTTGATAGCAAATGCCGATGCGATTGACAGCGTAGAATGAAGG
DNA 2: CCTTCATTCTACGCTGTCAATCGCATCGGCATTTGCTATCAACTCATGACCTCGTTCGGC
B22: NRC3_wobSeed136_DR5_G11T_o1 (dsDNA)
DNA 1: GCTAGCCTAGTTCATTCAGGGGCCAGTATAGAAAGCGCGATTGACAGCGTAGAATGAAGG
DNA 2: CCTTCATTCTACGCTGTCAATCGCGCTTTCTATACTGGCCCCTGAATGAACTAGGCTAGC
B23: NRC3_wobSeed66_DR2_T16G_o1 (dsDNA)
DNA 1: GCAATACAGGGTCACGAGGCCAGAGTAGGTACGAATGCGATTGACAGCGTAGAATGAAGG
DNA 2: CCTTCATTCTACGCTGTCAATCGCATTCGTACCTACTCTGGCCTCGTGACCCTGTATTGC
B24: NRC3_random_hg19_149_o1 (dsDNA)
DNA 1: GCATGAAACCATGCTCGAGTGTGTGTGTGTGTGTATGCGATTGACAGCGTAGAATGAAGG
DNA 2: CCTTCATTCTACGCTGTCAATCGCATACACACACACACACACTCGAGCATGGTTTCATGC
B25: NRC3_wobSeed17_DR0_T21G_o1 (dsDNA)
DNA 1: GCATATGTAGGTTAGGGTCAGTCAGAAAGTAGGGAAGCGATTGACAGCGTAGAATGAAGG
DNA 2: CCTTCATTCTACGCTGTCAATCGCTTCCCTACTTTCTGACTGACCCTAACCTACATATGC
B26: NRC3_random_hg19_315_o1 (dsDNA)
DNA 1: GCAGTCACACCTAACTGCAGGGAAGTCTATGAAATGGCGATTGACAGCGTAGAATGAAGG
DNA 2: CCTTCATTCTACGCTGTCAATCGCCATTTCATAGACTTCCCTGCAGTTAGGTGTGACTGC
B27: NRC3_wobSeed76_DR3_G20T_o1 (dsDNA)
DNA 1: GCCCTACTGGGCCAAAAAGTTCATTGATGCCGATAAGCGATTGACAGCGTAGAATGAAGG
DNA 2: CCTTCATTCTACGCTGTCAATCGCTTATCGGCATCAATGAACTTTTTGGCCCAGTAGGGC
B28: NRC3_wobSeed39_DR1_G4C_o1 (dsDNA)
DNA 1: GCCCAACTAGGTCAAAGGACAGTGAAAGGCGACGTAGCGATTGACAGCGTAGAATGAAGG
DNA 2: CCTTCATTCTACGCTGTCAATCGCTACGTCGCCTTTCACTGTCCTTTGACCTAGTTGGGC
B29: NRC3_wobSeed136_DR5_T8G_o1 (dsDNA)
DNA 1: B22 DNA 1 with T8G, T11G
DNA 2: B22 DNA 2 with A50C, A53C
B30: NRC3_random_hg19_374_o1 (dsDNA)
DNA 1: GCTAGACTGGCGACTGCTTGATTCATGGCTGAGTCTGCGATTGACAGCGTAGAATGAAGG
DNA 2: CCTTCATTCTACGCTGTCAATCGCAGACTCAGCCATGAATCAAGCAGTCGCCAGTCTAGC

Target: RARb:RXRa (Homo sapiens, UniProt P10826;P19793 full;full)
Assay: no ligand; PBM; 270 nM : 90 nM RXRa; PBS pH 7.4, 2% milk, 0.02% Triton X-100, 1 mM DTT, BSA, 0.4 mg/ml salmon testes DNA
Details: tags: His kept;His cleaved; copies: 1;1; label: surface-attached array probe
Method in brief: (§1)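 Custom Agilent 4×180K protein-binding microarrays carried double-stranded probes, each with a 34-nt variable region. These regions held direct-repeat seeds, single-nucleotide variants, half-site ablations and random human genomic background sequences. Ligand-free nuclear receptor dimers were incubated on the arrays for 1 h, antibodies against each partner (one per run) detected binding, and scanned fluorescence was regression-normalized. Binding z-scores take the random background probes as reference.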

RARb:RXRa, sequence (P10826 whole entry, chain 1 of 2): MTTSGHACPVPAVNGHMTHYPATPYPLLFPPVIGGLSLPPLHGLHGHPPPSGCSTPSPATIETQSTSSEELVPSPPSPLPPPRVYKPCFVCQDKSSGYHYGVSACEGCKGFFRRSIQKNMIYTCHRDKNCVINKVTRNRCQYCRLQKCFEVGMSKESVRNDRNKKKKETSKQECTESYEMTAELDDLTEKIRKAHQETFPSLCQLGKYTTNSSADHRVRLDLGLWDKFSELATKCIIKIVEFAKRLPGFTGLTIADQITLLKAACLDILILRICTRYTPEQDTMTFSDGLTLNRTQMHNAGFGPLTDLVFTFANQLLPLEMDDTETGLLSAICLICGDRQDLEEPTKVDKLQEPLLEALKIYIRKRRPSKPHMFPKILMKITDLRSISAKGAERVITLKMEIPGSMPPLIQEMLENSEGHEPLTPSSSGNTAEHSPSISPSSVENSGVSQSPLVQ
RARb:RXRa, sequence (P19793 whole entry, chain 2 of 2): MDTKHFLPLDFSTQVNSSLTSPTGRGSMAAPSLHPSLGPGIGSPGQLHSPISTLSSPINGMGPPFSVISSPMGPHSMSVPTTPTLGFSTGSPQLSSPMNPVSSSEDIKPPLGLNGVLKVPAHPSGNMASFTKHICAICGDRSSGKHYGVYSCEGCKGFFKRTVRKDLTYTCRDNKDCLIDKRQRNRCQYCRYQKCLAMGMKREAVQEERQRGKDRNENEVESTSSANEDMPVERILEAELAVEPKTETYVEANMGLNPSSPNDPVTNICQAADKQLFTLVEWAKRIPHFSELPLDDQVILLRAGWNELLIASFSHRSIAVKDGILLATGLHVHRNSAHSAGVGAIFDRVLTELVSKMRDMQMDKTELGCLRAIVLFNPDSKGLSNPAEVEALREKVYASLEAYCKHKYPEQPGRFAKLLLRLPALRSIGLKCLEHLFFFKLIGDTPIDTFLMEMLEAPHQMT

Point of comparison: B15, binding signal 6 PBM z-score against 500 random probes. Against it:
- B1 — lower, 5.43 PBM z-score against 500 random probes
- B2 — lower, 5.46 PBM z-score against 500 random probes
- B3 — lower, 5.43 PBM z-score against 500 random probes
- B4 — lower, 5.58 PBM z-score against 500 random probes
- B5 — lower, 5.58 PBM z-score against 500 random probes
- B6 — lower, 5.56 PBM z-score against 500 random probes
- B7 — lower, 5.55 PBM z-score against 500 random probes
- B8 — lower, 5.53 PBM z-score against 500 random probes
- B9 — lower, 5.55 PBM z-score against 500 random probes
- B10 — lower, 5.63 PBM z-score against 500 random probes
- B11 — lower, 5.77 PBM z-score against 500 random probes
- B12 — lower, 5.54 PBM z-score against 500 random probes
- B13 — lower, 5.82 PBM z-score against 500 random probes
- B14 — higher, 6.08 PBM z-score against 500 random probes
- B16 — lower, 3.13 PBM z-score against 500 random probes
- B17 — lower, 5.59 PBM z-score against 500 random probes
- B18 — lower, 5.58 PBM z-score against 500 random probes

Target: PPARa:RXRa (Homo sapiens, UniProt Q07869;P19793 full;full)
Assay: as above
Details: tags: GST kept;His cleaved; copies: 1;1; label: surface-attached array probe
Method in brief: as §1

PPARa:RXRa, sequence (Q07869 whole entry, chain 1 of 2): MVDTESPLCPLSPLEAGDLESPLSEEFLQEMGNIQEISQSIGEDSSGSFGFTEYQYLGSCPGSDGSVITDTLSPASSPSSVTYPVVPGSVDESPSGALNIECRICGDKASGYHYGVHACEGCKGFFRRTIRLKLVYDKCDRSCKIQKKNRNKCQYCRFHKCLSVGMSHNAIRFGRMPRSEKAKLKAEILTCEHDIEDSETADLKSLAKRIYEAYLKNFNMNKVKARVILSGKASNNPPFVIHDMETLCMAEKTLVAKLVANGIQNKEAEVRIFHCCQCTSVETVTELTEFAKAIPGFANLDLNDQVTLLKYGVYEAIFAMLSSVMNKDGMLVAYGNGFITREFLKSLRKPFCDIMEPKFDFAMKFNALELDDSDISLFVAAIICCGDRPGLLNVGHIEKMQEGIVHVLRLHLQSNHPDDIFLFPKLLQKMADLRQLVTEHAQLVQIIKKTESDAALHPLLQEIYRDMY
PPARa:RXRa, sequence (P19793 whole entry, chain 2 of 2): as the sequence (P19793 whole entry, chain 2 of 2) above

Point of comparison: B22, binding signal 0.45 PBM z-score against 500 random probes. Against it:
- B19 — lower, -0.77 PBM z-score against 500 random probes
- B20 — higher, 3.44 PBM z-score against 500 random probes
- B21 — higher, 6.51 PBM z-score against 500 random probes
- B23 — higher, 6.53 PBM z-score against 500 random probes

Target: FXR:RXRa (Homo sapiens, UniProt Q96RI1;P19793 full;full)
Assay: as above
Details: tags: His kept;His cleaved; copies: 1;1; label: surface-attached array probe
Method in brief: as §1

FXR:RXRa, sequence (Q96RI1 whole entry, chain 1 of 2): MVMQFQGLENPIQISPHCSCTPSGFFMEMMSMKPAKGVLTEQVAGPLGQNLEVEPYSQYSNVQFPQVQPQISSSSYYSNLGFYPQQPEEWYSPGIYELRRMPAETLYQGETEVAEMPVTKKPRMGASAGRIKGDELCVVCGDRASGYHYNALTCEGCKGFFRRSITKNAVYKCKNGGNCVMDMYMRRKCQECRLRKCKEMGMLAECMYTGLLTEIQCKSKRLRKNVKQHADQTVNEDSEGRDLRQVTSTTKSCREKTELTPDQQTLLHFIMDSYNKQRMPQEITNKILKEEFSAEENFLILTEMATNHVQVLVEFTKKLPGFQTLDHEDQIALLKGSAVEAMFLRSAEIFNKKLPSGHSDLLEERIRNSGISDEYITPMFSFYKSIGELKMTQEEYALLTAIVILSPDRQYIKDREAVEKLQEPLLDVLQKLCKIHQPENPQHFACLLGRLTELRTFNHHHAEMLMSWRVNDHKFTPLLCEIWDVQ
FXR:RXRa, sequence (P19793 whole entry, chain 2 of 2): as the sequence (P19793 whole entry, chain 2 of 2) above

Point of comparison: B23, binding signal 7.9 PBM z-score against 500 random probes. Against it:
- B24 — lower, -0.44 PBM z-score against 500 random probes
- B25 — lower, 3 PBM z-score against 500 random probes
- B19 — lower, -0.46 PBM z-score against 500 random probes
- B26 — lower, -0.43 PBM z-score against 500 random probes
- B27 — lower, 0.49 PBM z-score against 500 random probes
- B20 — lower, 4.17 PBM z-score against 500 random probes
- B28 — lower, 3.67 PBM z-score against 500 random probes
- B21 — lower, 7.78 PBM z-score against 500 random probes
- B22 — lower, 0.31 PBM z-score against 500 random probes
- B29 — lower, 7.79 PBM z-score against 500 random probes
- B30 — lower, -0.55 PBM z-score against 500 random probes

Target: RARg:RXRa (Homo sapiens, UniProt P13631;P19793 full;full)
Assay: as above
Details: tags: His kept;His cleaved; copies: 1;1; label: surface-attached array probe
Method in brief: as §1

RARg:RXRa, sequence (P13631 whole entry, chain 1 of 2): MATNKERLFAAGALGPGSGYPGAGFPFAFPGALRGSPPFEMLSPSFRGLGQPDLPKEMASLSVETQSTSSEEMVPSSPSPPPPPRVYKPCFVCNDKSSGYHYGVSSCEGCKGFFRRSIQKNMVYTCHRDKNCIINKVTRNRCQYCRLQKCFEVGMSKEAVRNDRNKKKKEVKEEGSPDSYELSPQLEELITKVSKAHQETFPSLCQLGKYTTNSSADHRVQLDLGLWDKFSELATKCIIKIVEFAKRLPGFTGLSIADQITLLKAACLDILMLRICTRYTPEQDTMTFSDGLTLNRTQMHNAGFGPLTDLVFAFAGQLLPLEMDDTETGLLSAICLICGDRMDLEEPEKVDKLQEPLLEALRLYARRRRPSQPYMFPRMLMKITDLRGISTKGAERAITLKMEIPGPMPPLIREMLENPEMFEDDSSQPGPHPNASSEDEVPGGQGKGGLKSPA
RARg:RXRa, sequence (P19793 whole entry, chain 2 of 2): as the sequence (P19793 whole entry, chain 2 of 2) above

Point of comparison: B24, binding signal -0.37 PBM z-score against 500 random probes. Against it:
- B26 — higher, -0.2 PBM z-score against 500 random probes
- B28 — higher, 3.99 PBM z-score against 500 random probes
- B29 — higher, 7.94 PBM z-score against 500 random probes
- B30 — higher, -0.21 PBM z-score against 500 random probes
